test: soluble on expression in E. coli; label from the status in PepcDB or PDB records

For “MSDLVMFEPGASTSTDVPTNTDQTAMSTTQVVDALECDTFEGLMNVNETYVEILDSALLSVQQHLDDNLKRQQQLKEEYRLYNRADITKRKVPVHLYMPPYFKDDNNMYPPMSSEAREKQVLKWFDPMMKEEKKWTPSEIKTLRTSVKNALVAHQVQPWCSRRDIVASKLRDADITTSNFDRRQWTMELEDLMRKIAYVREKSEEEVLTASADYTVVPWTAIANFDFKGSRTEWAVKSKWYNELNPKWNKEHWSNEEVEKLKYLRESPKFVSWPMLALNLGTNRTSYQCMEKYKTEVSQHSKEWSQDEDTKLIALTKITSINGHIQWDKVAQCMPGRTRQQVRTRFSHTLDASVKHGRWTDQEDVLLVCAVSRYGAKDWAKVAQAVQNRNDSQCRERWTNVLNRSAHVNERFTLVEDEQLLYAVKVFGKGNWAKCQMLLPKKTSRQLRRRYLQLIAAKLRLAAGFCNAVDAMKSGRRAPEEDELEQEDIVEAEQIPNELMKEVYEKFANENPDMNETPEEFYKRVSALERPAAARIRALKNKPDYQKIQDKINEIVQKHKNAAEIDKELHSSEILSSLTITEVDVRYMIERSKTLTRYYEARQFRKNVDQIGCRVRPIKIDLDPETMPTFDPNDAEDEKQMVIVESLCSVIRAHDVKEWGTKFWNEHRFTAPKYAKRFVENMVINKSKEVAEWYLHVNSKSCNQNDVHCPAKSTLPPTAASFDLHKMLQKARSGLNRLSAEHFYPLDVSLAQQFNFKNDEREGLDGDRRMHIGLSDEVTNSKEYANFYARMRSILLEPMRLGIARESSSDETKRLVRCLAEERACDEEQQVTCDQIRRRRMPDDEIYVTPTSISRELNNGMKIDTTELLANLDKNSAKKIRMKRKIGEVRCDTKIKLLPLVILATVATVAARPARPPRSSAGTPTPSHVSIDTESNISLKVELD”, which “soluble on expression in E. coli” value is on record?
Its value is “not soluble”.

Which “soluble on expression in E. coli” value does the source give for “MMPTSTCGYPGMAEQSTVLYTAVGYMVGFVSLFNHTHSQDNFFHRGCYYGCDDDNMRFAFFSKAALEFLLRSNKKPDIIHCHDWQTGLIPIMLYEIYKYHGMEYQRVCYTIHNFKHQGMGGVGTLQATALNEASYYFQYNKLRDNFNPFALNLMKGGIIYSNAVTTVSPHHAVEAQTSE” here?
The value was “not soluble”.

Which “soluble on expression in E. coli” value does the source give for “MREETKCALIIDESLPLGLIANTAAILGAALGKNKPDLIGETVTDGSGIDHLGIVKIPIPILKGNAELLHQLSQKLLTDEFNDILTVDFTDVAQSIHTYEAYIEAFQSTAASDYRYFGIGICGDKKKVARLTGSLGLLRLEHHHHHH” here?
Its value is “soluble”.

For “MGSDKIHHHHHHMLVELKKPKLKDGKDQLRSYCNATGSPIAVWTNGDQISYYQRKDPNYFEDIPGLPNANQTLADILQIKFTLEDLIANDKLVKENKSLKTLIEEMEDDVLANAGVDVFEELFKLIFTKLYDEWYSGQGNRRSTRSLEFRNTGQTEAALKTKIQDLFDKAKKKWEGVFSEDAKISLTPSHLSVCVSSLENVKLFNSNLDVIDEAFEYLINQSSKGEKGQFFTPRYVIDLCVKMLNPQEDEYMIDTAAGSSGFPVHTIFHVWRQILDDEGLSASHLFSLEDKPPRCKEYVEDKVFAIDFDEKAVRVARTLNLIAGDGQTNVLHLNTLDYELWDEVTEQDDWDDIYHEGFKRLKRLRPKNSKDYREFQFDVLMANPPFAGDIKEPDTVGECNTYLYLKVLCKLKPSICRCSF”, which “soluble on expression in E. coli” value is on record?
The value was “not soluble”.

Which “soluble on expression in E. coli” value does the source give for “MSLGDQLKIIQDGQSFAFSLDTLLLAYWAKEAIKNRSKVVELCSGNAAASLYMAAFNKAHYDDVELQEDIVSKARRSVELNDMQDRITVHQGNVKDAGSFLRKDSYDVVVVNPPYFKAPAGHKLNPDRSKAIARHELEINLEEIIAVSAGLLKMKGKMFMVHRPERLGEIINYGFKHDLAVKTVQPFVSRRGQDANLVIVEAVRSGKGDGLVLRDAIEVHEADGSNTPAIKEILEAKEGHHHHHH” here?
The value was “soluble”.

With “MGSDKIHHHHHHMASLVDQITDLYVRMAELERRNRNRRRKGTIAEVSDDKSKYRVKLSEQAGKPYLTPWIKARTLAAGGVKVDVLYSVGEQVDVVSENGEMTDAQIDFSTYSDDNARENSDTPFHIKIGDTVIEASAGQAKVTSPKVIVESPNVQLGGDGGKRVARIGDLVHVMSGSSSGKWPIVEGSEHVFAVD” as the sequence, how does the “soluble on expression in E. coli” value read?
Its value is “not soluble”.

Which “soluble on expression in E. coli” value does the source give for “MSKQIVILGAGYGGLLAALNVRKYYSKSEAQVTVINQYPTHQIITELHRLAAGNVSEQAVAMPLTKLFKGKDIDLKIATVESFSVDSKEIKLAGGTTLSYDALVVALGSKTAYFGIPGLEENSMVLKSAADANKIYKHVEDRIREYAKTKNEADATIVIGGGGLTGVELVGELADIMPKLAKSHGVNPKEVKLLLVEAGPKILPVLPDHLIERATTSLEARGVTFLTGLPVTNVAGNEIDLKDGQKLVANTFVWTGGVQGNPLIGESGLEVNRGRATVDAYLQSTSHKDVFVAGDSAVVFAPDGRPYPPTAQIAWQMGELIGYNLYAALEGKAFEEFAPVNSGTLASLGRKDAVATIGASNTPLKGLPASLMKEASNVRYLSHIKGLFSLAY” here?
Its value is “not soluble”.

Which “soluble on expression in E. coli” value does the source give for “MSLGITDSGLSEKQVEKLVRASRPNNPSPDIWARAIKESLEELGQPVDKEHVSAVCAVISQVSAFSISPKNSRMASILRKKIEAAESNEVLRLLIETRLDQTASNGRTFRENIDSIQSELDFEKWYDEFTSASVTKPILLVLKKDASDLITTAGSMQVSVKFAEEYPKKPRNAGGGSVRDMLYTCKGGVFYGTAYLLDYKHNYDDWKYVFADFNAGHYTSRNAGFQKMLGRLTHRMVDTDGDLLSYENGNATPSVTYVTFINFLKDKGIGFDEKKVMKDFQQEKSYDFEETWSYKTLSELYKKKYGHPIYAVLPDIPLNSPKFVSKNLSTKWFAERVKSRYNHCMRTSIEGHHHHHH” here?
Its value is “soluble”.

Which “soluble on expression in E. coli” value does the source give for “MSLILASLVRYYRRLATETDETGNPKVPSYGFSEEKIGWILVLDKEGRLKTVVPNLTADKKPQPKLMSVPRPEKRTSGIKPNFLWDKTAYALGVEANKNKAEAKEKPFTPSEKTFEAFKQYHLDLLQNSEDEGLQALCRFLQNWQPAHFAAENLPAEMLDSNTAFSLEKPTALIHKREAAQTLWAGCLKSDEALESLCLISGDTAPIARLHPAIKGVFGGQSSGGSIISFNKEAFSSFGKEQGANAPVSEQSAFAYTTALNYLLRRENNHCLTIGDASTVFWAEADDIVDEGHHHHHH” here?
Its value is “not soluble”.

For “MGSDKIHHHHHHMSRFTYAYMMMTRLETLKNNLQAAFGQDLALTESLGELTLEVAAEQWFSACTKLRTDPALRFESCIDLCGVDYLTWGNGTQPEEKTGPVTHGRYAVVVHLLSIEHNWRLRVRTWAPDDEFPMVSSLLECWPGVNWFEREAFDLYGIVFEGHPDLRRILTDYGFIGHPFRKDFPLSGTVEMRYDPEQKRVIYQPVTIDPREITPRVVREGSYGMGR”, which “soluble on expression in E. coli” value is on record?
Its value is “not soluble”.

Which “soluble on expression in E. coli” value does the source give for “MGSDKIHHHHHHMNTIGERLKYLRKLNNLTQKQVAEKTGVQRGNISHYEKNDFLPSRVALISFANFFKTNYDWIVYGKGAIPKSIDEVMYAKSNSIAECNNGAAVDFSKRLIFTMKYFHETIDGLCLKLNISKDIFHEILIKKNVSAFDLFKICNYFNVSMDWMFNGNITYLKSDAKLQQAYLMNSKGNKPLSYDNHGMVQCTCEEKKLLIFFENLNTKDKSLVIDILNSVNNQASMDIQKLIK” here?
Its value is “not soluble”.

For “MGSDKIHHHHHHMDFWKCPHCGFVVSKTHQEMTQDQWSQLNSSWHHNFENNRESRTTNQPPYADQALVLAILKENDILDLDDGLDYAAGYGTFSKCLKKYFNIGIRIFDRYVHSSDEGMRYVAQKELSRYKLVINSAMFEHVLNRHALDEVNGLVKDDGVLMLHTVVCERIPKDPGWFYIDTMVHTALHTNKSMSILMDQWGYGASIYSPQAKSWFLFKRDNPLIDDLEAKVAGINHELQTTYLHYKRGFVDYWKGF”, which “soluble on expression in E. coli” value is on record?
The value was “not soluble”.

For “MSLSQDGLLGEVLSEGVLTLTLGRAPAHPLSRAMIAALHDALRRAMGDDHVHVLVIHGPGRIFCAGHDLKEIGRHRADPDEGRAFVTDLFEACSALMLDLAHCPKPTIALVEGIATAAGLQLMAACDLAYASPAARFCLPGVQNGGFCTTPAVAVSRVIGRRAVTEMALTGATYDADWALAAGLINRILPEAALATHVADLAGALAARNQAPLRRGLETLNRHLELPLEQAYALATPVMVEHFMDPGRRHLDWIDEGHHHHHH”, which “soluble on expression in E. coli” value is on record?
The value was “soluble”.

With “GPGSMSTALFVQATFFNTDNKSTDNKLMTTAAVSHNQSSQDNIMVVNLQKELQKRLEEDAGVKTLYITMGGEPRFNRALFENKSMALFVGDSMSIHHFTDDYGRITRRLLILYPMTFSRREEIPKQQILKKVEKAANQPEDNCGIEVVDLVELQKKHVYLEGQAAACYSYNGEFVYMALSGRSSEQVLSIICAPENLNIPNEKRFVFTAVLPHRSKENGRVIGEDVIPYTSLVGWCGKGICAWGLEFLRFPSEKDQEAFYEHLENNYSKVINLDESELRAFCGNAREVAIAHGNGERRVLCISHQALNALRPFKRQMLEDWYGLGNILPFYADVLERRAGRSVGSLVSVPVIHGEVLPLPGELGVIEAAKVDIKDGGC” as the sequence, how does the “soluble on expression in E. coli” value read?
Its value is “soluble”.

Which “soluble on expression in E. coli” value does the source give for “MGSDKIHHHHHHMEKSYWEQAHLQLPLKYTWKISRNASTEKINVIVFLCIDGRTYPGEAAPNVRYGESVELIDLQFKHFQTVWKDSLLQDEHAYNDVLDGLKLCQSLRFALESAYVHARCDKDPAFFERYTGIKMHTSPLATSYTLPIMDPGQIQEFIQTHDLTRFDTLKIKTGKEESKELIKTASRYFDKMIRVDANEAWTDPDLLIKELEELKRIPLEFIEQPFESAQKDAYKYFKKYSKIPVIADESITFAPDLKEIKELFHGVNMKLMKAGGYREGANILLKSKELGLKTMVGCMVETTLGIRSGMWISGHSDYIDLDGSFVIDNEPFKLVSENLGRLVIKQVNFFIEKWQK” here?
The value was “not soluble”.

With “GPGSMSSSAPLSTQQPAPLPLQRQQQQQSTQSMLDAIRQQGWGSASSGGGDAMPSDASSRGMEGHSGAKLACPQMHEGHSAISSRPFNSEGADKPFAAVAATREASEAAKNSYDSMQPSADSQQLRGAEGECALPGHANAAAAAATLRNTNGVCEAIVTAARYGRSMEPSASVPAVTATAALVNVVAEEKERRRLSGPFGSYSTTDEVFHQKCNDVQRGSAIESADSRTDASGGALVVSPAYAAVPARVSEAPSPVDAEMQQLLADARRAYTAAEERLLSDGLALREDWMGTRDLFFAAGSLFAAVGEAADAARCLLHATFINRAFQNDSEAMVTLAMSVEQLKQSHPRIAVDSLLRLAPCYAQQDLRYQAARCHRDAAEILENILEAKEEAVVQYRAALDMYAETKVAAAETARRWERQQQQQRTAAIWGDLTGTPPLPPSAGASATNGDLTSPTAPGGVEATSLGSEQPFVSPKSTAPVPSSGGDSLTSSVNGQKPHSLEFPAHGPPQYRVSTTVQRSLADSCRWRLMILLTLLGRYDEAREAALDCAANVPRTLPKTKYLLYATLCVLARGASVKTDSTANSVSDPAAAAEAAQAPETPTTPFTAAAADTVYFDSLYDTEKFFLGLQDEDRTFQRGKENALVRALLAANRACSLTAFDEAVRAYKEYSTTEPCAAFELLAGECRRSLFEHMERFA” as the sequence, how does the “soluble on expression in E. coli” value read?
Its value is “not soluble”.

Which “soluble on expression in E. coli” value does the source give for “MRFLDRFFKKKKKEEALWTKCPNCKSLLYVPDLESNLKVCPNCDYHFTLSALERIKYTLDEENPELLFEEILPADPLNFKDTKSYKDRIKKAQEETGLSEAIVITEGHIKGKRAILAVMDFNFIGGSMGSVVGERFFRACERAVETKTPLISFAASGGARMQEGILSLMQMAKTTFGVGLLKEANIPYISVLTNPTMGGVSASFAFLGDLILAEPKALIGFAGPRVIEQTIKQKLPEGFQTAEFLLEKGQIDMVVHRKELKDKLAYFLEVMYYAKRLEHHHHHH” here?
The value was “not soluble”.

Source: the DeepSol protein solubility set
